Test results reported in the supplement of paper PMC10567573.
± gives the standard deviation.

Experiment: protein stability index of a GFP-peptide fusion (GPS, HEK-293T) (PSI 1-6); higher = more stable
Conditions: c terminus: a fixed tail appended
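Note: 24-mer peptide tiles fused after GFP, lentivirally expressed, FACS-sorted into six equal bins by GFP/DsRed ratio, decoded by Illumina sequencing, PSI is the read-weighted mean bin number.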

Row | Sequence | protein stability index (treatment: DMSO) | protein stability index (treatment: MLN4924 1 uM, 8 h)
1 | AAAHYTGDKASPDQNASTHTPQSS [CLINT1] | 5.52 ± 0.25 | 5.524 ± 0.042
2 | AAFGHVQRAEMLPKTSGTRATSLG [CPOX] | 3.82 ± 0.18 | 3.91 ± 0.077
3 | AAGYIQCMHEVHTFVSTCQAIDAT [HES6] | 1.93 ± 0.6 | 2.12 ± 0.37
4 | AALSASMASLLEDLSHIEGLSQAP [SERTAD1] | 2.81 ± 0.22 | 2.76 ± 0.26
5 | AANEQLTRAILRERICSEEERAKA [CHCHD3] | 4.82 ± 0.23 | 4.97 ± 0.19
6 | AAWQGHLPIVKLLAKQPGVSVNAQ [RIPK4] | 2.57 ± 0.38 | 3.07 ± 0.61
7 | ADCVRGPDGVCLSGGRGPQGDKAI [PBXIP1] | 4.52 ± 0.57 | 4.78 ± 0.22
8 | ADNKIVSHLLVAEPEKIYAMPDPT [ESRRG] | 4.23 ± 0.17 | 4.22 ± 0.27
9 | ADRPFSAPWWFWLSLTGVSLAGAL [POMT2] | 2.93 ± 0.7 | 3 ± 0.48
10 | AEPAPRAREGGGCGRSEVRPVAPR [SMAD6] | 4.35 ± 0.093 | 4.15 ± 0.4
11 | AFACQVAGCCQVFDALDDYEHHYH [ZNF511] | 2.97 ± 0.45 | 2.74 ± 0.5
12 | AFCSSDEELEDSKALLYLPIAPEV [RBBP5] | 3.7 ± 0.21 | 3.66 ± 0.28
13 | AFELLGKNTFEFLKENNFQPYPLP [CLK3] | 2.51 ± 0.33 | 2.65 ± 0.086
14 | AFHDGQRSRLRPRDDLDRLGVFLD [TRIM14] | 3.35 ± 0.26 | 3.66 ± 0.31
15 | AGEAHMAADGETNGSCENSDASSH [EHMT1] | 5.55 ± 0.36 | 5.69 ± 0.15
16 | AGFQDIPKRCLKAREHFGTVKTHL [TSN] | 2.81 ± 0.44 | 2.78 ± 0.24
17 | AGMGKVTSASFGEESTPGQTNSET [HDAC6] | 5.3 ± 0.29 | 5.25 ± 0.1
18 | AGSPIRHENAVQGSAVEVQTYQPP [ISL2] | 4.91 ± 0.14 | 5.04 ± 0.19
19 | AGSSLPTSSKVNATVPSNMMSVNG [ACBD3] | 4.13 ± 0.19 | 4.16 ± 0.14
20 | AHTATASAVEGAPPARPRPRSPEC [IRX6] | 5.37 ± 0.13 | 5.19 ± 0.28
21 | AICGDRATGKHYGASSCDGCKGFF [HNF4A] | 2.8 ± 0.24 | 2.98 ± 0.31
22 | AIEGIPGSDYVNANYIDGYRKQNA [PTPRD] | 4.09 ± 0.24 | 4.6 ± 0.12
23 | AKKAMGYQPLVTMDDAMERTVQSF [NSDHL] | 3.62 ± 0.069 | 3.46 ± 0.39

Row | Sequence | protein stability index (treatment: DMSO) | protein stability index (treatment: MLN4924 1 uM, 8 h)
24 | AKVLTLSDDLERTIEERVNILFDF [EIF5] | 2.33 ± 0.36 | 2.4 ± 0.21
25 | AKYEYMEEQVILTEKDLLEDGFGE [SAT1] | 4.02 ± 0.4 | 4.06 ± 0.37
26 | ALEALEPFWEVLVRSTETVERDNM [HDAC6] | 2.95 ± 0.23 | 3.12 ± 0.45
27 | ALKLFPVQPCSAVHLLLKKVLFAL [FAM189A2] | 2.39 ± 0.17 | 2.35 ± 0.35
28 | ALLDLHFPSDHLGDLGDPFHLGLE [TFE3] | 2.37 ± 0.36 | 2.32 ± 0.28
29 | ALLSCCLTVVSFYQVAALQGDLAS [TNFSF13B] | 3.57 ± 0.21 | 3.2 ± 0.26
30 | ALPDSVLRRFVVRTMCAVLGLVAR [AUP1] | 2.51 ± 0.21 | 2.32 ± 0.44
31 | ALPKATILDLSCNKLTTLPSDFCG [LRRC59] | 2.82 ± 0.16 | 3.02 ± 0.28
32 | ALRKTGQYSGMLDCARRILAREGV [SLC25A25] | 2.29 ± 0.18 | 2.27 ± 0.15
33 | ALSRKKSQGLAREQHAGTSEGLHL [FBF1] | 4.26 ± 0.28 | 3.78 ± 0.42
34 | ALVHDHQAYAHYLLATFPRRALAP [ANKRD9] | 2.22 ± 0.21 | 2.4 ± 0.19
35 | ALWKHLKSMHREELEKSGHGQAGQ [ZBED2] | 2.98 ± 0.38 | 3.48 ± 0.43
36 | ANAVISVSGINHDVTSGDHGDYFR [CPN1] | 3.58 ± 0.13 | 3.48 ± 0.31
37 | ANNDHTVLSLACAGGHLAVVELLL [ANKRD17] | 2.41 ± 0.25 | 2.42 ± 0.24
38 | ANRPDPNTPMEETVRAMTHVINQG [KCNAB2] | 4.75 ± 0.13 | 4.78 ± 0.12
39 | APGSSVEYQCQNLYQLEGNNQITC [CFHR2] | 3.88 ± 0.12 | 3.88 ± 0.17
40 | APKKELINIKGISEAKADKILAEA [RAD51] | 4.05 ± 0.25 | 4.49 ± 0.46
41 | APRGTPDPGLGEGPALWLRSTCVY [PLEKHN1] | 2.43 ± 0.24 | 2.34 ± 0.27
42 | APVLVAAPHSTFFDPIVLLPCDLP [LPCAT4] | 2.25 ± 0.27 | 2.47 ± 0.32
43 | ARAEQEEEFISNTLFKKIQALQKE [CCDC6] | 3.48 ± 0.41 | 3.77 ± 0.34
44 | ARASEGSDSGSDKSLEGGGTAFDA [SMG5] | 5.48 ± 0.3 | 5.37 ± 0.45
45 | ARCTAGTLHNLSHHREGLLAIFKS [CTNNB1] | 2.48 ± 0.19 | 2.45 ± 0.19
46 | ARLMRSNYPPPLSSAALRGAGPTR [C6orf223] | 3.79 ± 0.2 | 3.96 ± 0.14

Row | Sequence | protein stability index (treatment: DMSO) | protein stability index (treatment: MLN4924 1 uM, 8 h)
47 | ARVLDRRGCSRVEGGGTSLHVACE [ANKRD9] | 3.57 ± 0.27 | 3.47 ± 0.46
48 | ASFDVCESVDEAGGSGPAGLRAST [RHOBTB2] | 5.24 ± 0.21 | 5.02 ± 0.15
49 | ASKSKGAAVKLADFGLAIEVQGDQ [CAMK2D] | 4.13 ± 0.37 | 4.37 ± 0.3
50 | ASRLLTTALTSFCAKYTYPVCSAL [FANCE] | 3.29 ± 0.58 | 3.34 ± 0.49
51 | AVGGRNAAGELPTVECYNPRTNEW [KLHL13] | 4.2 ± 0.13 | 4.33 ± 0.13
52 | AVLGRYVPGLLLSYLMLVTVMMWP [RETREG3] | 3.41 ± 0.13 | 3.1 ± 0.47
53 | AWGPGTLAAAPEGLEDAGLDPHFV [TEX19] | 4.31 ± 0.25 | 4.37 ± 0.26
54 | AYDLSSVIASGSSVGHNNLIPLAN [CARM1] | 3.23 ± 0.4 | 3.09 ± 0.28
55 | AYEYEREGLYEQAFQLLRRFVQAE [TRADD] | 2.27 ± 0.31 | 2.48 ± 0.26
56 | CCSRYLCMGAMSLFLPCLLCYPPA [SPRY1] | 2.82 ± 0.47 | 2.58 ± 0.63
57 | CDEARNHYGGVVSLIPLILDLMKE [SPACA9] | 2.3 ± 0.29 | 2.36 ± 0.23
58 | CGPQWEMSEWSECTAKCGERSVVT [ADAMTSL2] | 2.92 ± 0.42 | 3 ± 0.52
59 | CISDELLENLCENASTLRTINIKC [FBXO39] | 2.47 ± 0.2 | 2.69 ± 0.28
60 | CLGLSYDGLLGDNQIMPKTGFLII [MAGEA6] | 3.01 ± 0.6 | 2.49 ± 0.44
61 | CLHHICTNYNNVCRKFPRDMKAMS [RHOBTB2] | 2.26 ± 0.18 | 2.42 ± 0.067
62 | CLLVLRLFLGIHVFLVSCALPDSV [AUP1] | 3.22 ± 0.2 | 3.09 ± 0.05
63 | CLSRHSINPYSNRESRILFSTWNL [DFFB] | 2.28 ± 0.27 | 2.15 ± 0.3
64 | CNDLFKVNPFQLQQFRADPSTASL [TIAF1] | 2.71 ± 0.063 | 2.78 ± 0.18
65 | CQTGGVEDQEEWHAQVVEELSNFK [ZBED1] | 5.73 ± 0.26 | 5.6 ± 0.16
66 | CRETGSFLDLFRYRVLLGHTLILM [SLC22A15] | 2.97 ± 0.59 | 2.45 ± 0.38
67 | CRLKRCVDIGMMKEFILTDEEVQR [VDR] | 2.49 ± 0.28 | 2.53 ± 0.13
68 | CRRSVRLALGRERLGEIHTLPLPA [SPSB1] | 3 ± 0.17 | 2.98 ± 0.11
69 | CTAGNFMECQPESSISHRFHKDCA [EHMT1] | 2.96 ± 0.25 | 3.03 ± 0.27

Row | Sequence | protein stability index (treatment: DMSO) | protein stability index (treatment: MLN4924 1 uM, 8 h)
70 | DAHLVLDGEEIPVQKNILAAASPY [GAN] | 4.18 ± 0.12 | 4.16 ± 0.3
71 | DALISVSYTIITPLFNPMIYSLRN [OR10K2] | 4.18 ± 0.26 | 3.35 ± 0.75
72 | DAPPVELQLLHECSPSQMDLLCAQ [FANCE] | 4.31 ± 0.054 | 4.63 ± 0.25
73 | DARDEELEKDTMDNWDEKKLEEVV [ZC3H15] | 5.45 ± 0.4 | 5.21 ± 0.25
74 | DARDGQSRTVRQFQFTDWPEQGVP [PTPRD] | 4.08 ± 0.61 | 4.32 ± 0.41
75 | DAWKRPDALPGQSKRLAVPCKLEK [TLE6] | 4.2 ± 0.17 | 4.28 ± 0.2
76 | DDKHYGGFTNKQLQSGQEYVFFVL [PTPRD] | 2.64 ± 0.53 | 2.55 ± 0.43
77 | DEEVVATAGDRLTEFRKGAQSLPG [IRX6] | 5.12 ± 0.2 | 5.19 ± 0.22
78 | DERRDAEERASLAGNRNSMVIHIP [KCNK9] | 4.24 ± 0.08 | 4.51 ± 0.086
79 | DFKNPIIEKYLRRQLTKPRPVILD [OAS1] | 2.46 ± 0.11 | 2.36 ± 0.2
80 | DFSMAEALNQEFLATRSNEKQELQ [PRPH] | 5.05 ± 0.19 | 4.95 ± 0.27
81 | DIDGDVLVFLELAQFHCAYQLADW [RHOBTB2] | 2.76 ± 0.47 | 3.23 ± 0.62
82 | DIDQMFSTLLGEMDLLTQSLGVDT [APBB1IP] | 3.16 ± 0.5 | 2.76 ± 0.41
83 | DIGKGAFSVVRRCVKLCTGHEYAA [CAMK2B] | 1.93 ± 0.2 | 2.06 ± 0.37
84 | DISMEIDSPENMMRHIRFLKNEVE [CCDC6] | 4.09 ± 0.39 | 3.86 ± 0.33
85 | DKLLKHMIIEHKIVIADVKLVADF [ZNF277] | 3.07 ± 0.33 | 2.82 ± 0.72
86 | DKRNYPSLELDKMAHGYGEESEEE [CHGB] | 5.63 ± 0.37 | 5.66 ± 0.19
87 | DPDEVARRWGKRKNKPKMNYEKLS [ETS1] | 4.51 ± 0.24 | 4.22 ± 0.35
88 | DPFVCRLRHLSPTPSEEHMKNKNN [OR4A15] | 4.73 ± 0.11 | 4.66 ± 0.1
89 | DPGLWSRLCRLAGASSPAAYDEAL [ZSWIM9] | 2.82 ± 0.15 | 2.78 ± 0.24
